Laboratory results reported in US6495376 (dated 2002).
Like-named read-outs stand apart in the source and are kept apart here. One block for each binder: values may come before it. Where no end group is shown, it is not given here. [ ]: non-standard residue; d: D form. fluorescein = N-terminal fluorescein label; pT = C[C@@H](OP(=O)(O)O)[C@H](N)C(=O)O; pS = N[C@@H](COP(=O)(O)O)C(=O)O

Experiments:
GST [1] = molecular target: T1, GST (UniProt P08515 1-218 = GST); experiment: fluorescence anisotropy
T1 construct: Control protein; also called control GST

GST-WW-domain of Pin1 = molecular target: T2, GST-WW-domain of Pin1 (human, UniProt Q13526 1-54); experiment: fluorescence anisotropy
T2 construct: range 1-54; also called GST-Pin1 WW-domain; Pin1 WW-domain; not shown: glutathione S-transferase (GST), N-terminal fusion partner

Pin1^Y23A = molecular target: T3, Pin1^Y23A (human, UniProt Q13526 1-163); experiment: ELISA
T3 construct: mature; also called Pin1^Y23A mutant

GST [2] = molecular target: T1, GST; experiment: fluorescence anisotropy; remark: listed apart in the source

Binder: fluorescein-EQPL[pT]PVTDL (also called Cdc25C peptide) [Cdc25 Peptide EQPLpTPVTDL]
binding result (GST [1]): no binding

Binder: fluorescein-IPGTPPPNYD [Pro-Rich peptide IPGTPPPNYD]
binding result (GST-WW-domain of Pin1): no binding | binding result (GST [1]): no binding

B1: tau peptide KVAVVRTPPKSPS (pT-231), SEQ ID NO: 30 (peptide)
peptide: KVAVVR[pT]PPKSPS
notes: also called pT231 tau peptide (row of Pin1^Y23A)
binding result (Pin1^Y23A): no binding

Now from value to binder:

binding result (GST [1]): no binding
Binder: fluorescein-EQPLTPVTDL [Cdc25 Peptide EQPLTPVTDL (nonphosphorylated)]

binding result (GST [2]): no binding
Binder: fluorescein-WFY[pS]PFLE (also called phosphopeptide) [Pintide analogue WFYpSPFLE]

binding result (GST [2]): no binding
Binder: fluorescein-WFYSPFLE (also called nonphosphorylated peptide) [WFYSPFLE, nonphosphorylated control peptide]
